The record followed here is PMC8727931.

First the molecules themselves.
B1: His-tagged GABARAP [not stated] / GST-FAM134B [not stated] (parent)
chain 1: MKFVYKEEHPFEKRRSEGEKIRKKYPDRVPVIVEKAPKARIGDLDKKKYLVPSDLTVGQFYFLIRKRIHLRAEDALFFFVNNVIPPTSATMGQLYQEHHEEDFFLYIAYSDESVYGL
chain 2: EGDDFELLDQSELDQIESELGLTQDQ

In the first assay the parent is B1. As to the kind of experiment: competitive GST pull-down (gel band quantification). The conditions noted are these: with GST-FAM134B; competition with MBP-LC3A H57D in the same reaction; n = 3; read off a plot.
As to chain 1 D54H, the ratio to parent came out at 1.05.

The same assay, now with this note: with GST-FAM134B; competition with MBP-LC3A K65F in the same reaction; n = 3; read off a plot.
Regarding chain 1 F62K, the ratio to parent came out at 1.05.

Staying with this assay, now noted: with GST-FAM134B; competition with MBP-LC3A H27Y in the same reaction; n = 3; read off a plot.
Regarding chain 1 Y25H, the ratio to parent came out at 0.89.

Staying with this assay, now noted: with GST-FAM134B; competition with MBP-LC3A K30R in the same reaction; n = 3; read off a plot.
For the variant chain 1 R28K, the ratio to parent is 0.87.
